Substitutions are numbered along the chain they refer to.
B1: muEGFR-6 (antibody, V domains shown)
VH: QVQLQQSGAELARPGASVKLSCKASGYTFTSYWMQWVKQRPGQGLECIGALYPGDGDARYTQKFKGKATLTADRSSSTAYMQLSSLASEDSAVYYCARYDAPGYAMDYWGQGTSVTVAS
VL: DIQMTQSPSSLSASLGGKVTITCKASQDINNYIAWYQHKPGKGPRLLIHYTSTLHPGIPSRFSGSGSGRDYSFSISNLEPEDIATYYCLQYDNLLYTFGGGTKLEIKR
B2: muEGFR-7 (antibody, V domains shown)
VH: B1 VH with A50T, L51I, A58T, R59T, R74K, A118S
VL: B1 VL with I33L

How the values were obtained:
[1] = target: human epidermal growth factor receptor (EGFR) (human) (UniProt P00533)
[2] = target: human epidermal growth factor receptor (EGFR) (human) (UniProt P00533); remark: listed apart in the source
[3] = target: human epidermal growth factor receptor (EGFR) (human) (UniProt P00533); remark: listed apart in the source

Binder | EC50 (nM), inhibition of basal proliferation of HCC827 cells (WST-8, 5 days) [1] | Maximal inhibition (%) of basal proliferation of HCC827 cells [1] | EC50 (nM), H292 tumor cell growth inhibition (Example 11, WST-8) [2] | EC50 (nM), inhibition of basal proliferation of NCI-H292 cells (WST-8, 5 days) [3] | Maximal inhibition (%) of basal proliferation of NCI-H292 cells [3]
B1 | 0.3 nM | 72% | 2.59 nM | 5.6 nM | 65%
B2 | 0.03 nM | 72% | 0.21 nM | 0.4 nM | 77%

Source: patent US9125896B2
